# In patent US20230135471A1, “UBIQUITIN VARIANTS WITH IMPROVED AFFINITY FOR 53BP1” (Integrated DNA Technologies, Inc., priority 2021, published 2023):
# Target: 53BP1 fragment (a.a. 1221-1718) fused to an adenylate cyclase fragment (two-hybrid) (UniProt Q12888)
# Experiment: cell-based or functional assay
Substance,Experiment 1 Average Enrichment [log2],Experiment 1 Rep 1 Enrichment [log2],Experiment 1 Rep 2 Enrichment [log2],Experiment 2 Average Enrichment [log2],Experiment 2 Rep 1 Enrichment [log2],Experiment 2 Rep 2 Enrichment [log2],Percent GFP Positive Rep 1 [%],Percent GFP Positive Rep 2 [%],Percent GFP Positive Rep 3 [%]
i53 + M1T two-hybrid fusion (designed binder),0.68,0.79,0.56,0.61,0.63,0.6,,,
i53 + E18W two-hybrid fusion (designed binder),0.18,0.06,0.31,0.75,0.8,0.69,,,
i53 + D39L two-hybrid fusion (designed binder),0.06,0.49,-0.38,-2.16,-2.9,-1.42,,,
i53 + K63V two-hybrid fusion (designed binder),-0.13,-0.15,-0.11,0.01,0,0.02,,,
i53 + N60Q two-hybrid fusion (designed binder),0.08,0.13,0.03,0.29,0.01,0.58,,,
i53 + M1Y two-hybrid fusion (designed binder),2.36,2.56,2.16,1,1.18,0.81,,,
i53 + P38K two-hybrid fusion (designed binder),-1.02,-2.14,0.1,0.25,-0.61,1.11,,,
i53 + R54K two-hybrid fusion (designed binder),0.3,0.07,0.54,-0.22,-0.16,-0.29,,,
i53 + I61L two-hybrid fusion (designed binder),1.06,1.1,1.02,0.67,0.75,0.59,15.9,17.6,17.2
i53 + E18Y two-hybrid fusion (designed binder),0.72,1.28,0.17,0.82,1.2,0.44,,,
i53 + A28I two-hybrid fusion (designed binder),0.05,-0.45,0.56,0.05,0.37,-0.28,,,
i53 + L67Y two-hybrid fusion (designed binder),0.14,-0.58,0.86,0.58,0.5,0.65,,,
i53 + R74E two-hybrid fusion (designed binder),0.38,0.53,0.23,-0.1,0.14,-0.35,,,
i53 + V17C two-hybrid fusion (designed binder),-1.08,-2.27,0.12,0.19,0.6,-0.23,,,
i53 + A28E two-hybrid fusion (designed binder),0.31,0.23,0.4,0.42,0.53,0.32,,,
i53 + E18D two-hybrid fusion (designed binder),-0.85,-0.69,-1.02,0.14,1.65,-1.37,,,
i53 + R54Q two-hybrid fusion (designed binder),0.14,-0.05,0.32,-0.02,-0.04,0,,,
i53 + P38F two-hybrid fusion (designed binder),0.67,0.91,0.43,0.81,0.48,1.13,,,
